Columns and labels:
[1] = test system: ComP-His (pilin-like protein ComP of A. baylyi with C-6X His tag)
[2] = test system: PilA17978-His (pilin of A. baumannii ATCC 17978 with C-terminal hexa-histidine tag)
[3] = test system: PilAM2, major type IVa pilin of A. nosocomialis strain M2
[4] = test system: DsbA1-His of N. meningitidis expressed in A. baylyi (pBAV-dsbA1-His, C-6X His)
[5] = test system: OmpA-His (A1S_1193) expressed in A. baylyi
[6] = test system: OmpA-His (A1S_1193 with C-terminal 5x His tag), expressed in strain M2 backgrounds

Pg1LComP, ComP-specific O-OTase of A. baylyi ADP1 (ACIAD3337)
ComP-His electrophoretic mobility, western blot [1]: pg1LComP (ACIAD3337) is required for ComP modification
glycosylation in E. coli CLM24, western blot with anti-his and anti-glycan antibodies [1]: lower electrophoretic mobility bands that react to the anti-his and anti-glycan antibodies indicate glycosylation of ComP by the C. jejuni LLO
glycosylation in E. coli CLM24 with the S. pneumoniae serotype 14 CPS locus, western blot [1]: Lower electrophoretic mobility bands in panel A that react to both Anti-His and Anti-Glycan antibodies in lane 2 relative to lane 1
heterologous ComP-His electrophoretic mobility, western blot [1]: ComP-His was only modified in A. baylyi ADP1
heterologous PilA17978 electrophoretic mobility, western blot [2]: PilA17978 was not glycosylated by Pg1LComP
heterologous PilAM2 electrophoretic mobility, western blot [3]: Pg1LComP was unable to glycosylate the pilins recognized by TfpO

Pg1LADP1, general O-OTase of A. baylyi ADP1 (ACIAD0103)
ComP-His electrophoretic mobility, western blot [1]: Pg1LADP1 is not required for ComP post-translational modification
DsbA1-His electrophoretic mobility, western blot of A. baylyi lysates [4]: displayed an increased electrophoretic mobility in the Δpg1LADP1 background relative to wild-type and Δpg1LComP backgrounds
OmpA-His electrophoretic mobility, western blot of A. baylyi lysates [5]: displayed an increased electrophoretic mobility in the Δpg1LADP1 background relative to wild-type and Δpg1LComP backgrounds

Pg1LM2, general O-OTase of A. nosocomialis strain M2 (ORF M215_10475)
OmpA-His electrophoretic mobility, western blot; ESI-TOF-MS/MS [6]: OmpA-His from the M2Δpg1L::kan and the M2ΔweeH::kan backgrounds migrated at an increased electrophoretic mobility, consistent with the lack of a post-translational modification

TfpOM2, type four pilin specific O-oligosaccharyltransferase of A. nosocomialis strain M2 (ORF M215_10480)
MS/MS analysis of PilA from surface shear preparations [3]: PilA from the M2ΔtfpO::kanΔpilT::strep mutant was unmodified
